Experimental data: patent publication US20080009025A1, “PROTEIN KINASE REGULATION” (priority 1999, published 2008)

Assays:
PDK1-wt = biological target: T1, PDK1-wt (Homo sapiens, UniProt O15530); assay: Phosphorylation of AGC kinase substrates by PDK1 (32P, PhosphoImager); format: biochemical
T1 construct: made in house; host or cells: human embryonic kidney 293 cells
T1 sequence (O15530 1-556): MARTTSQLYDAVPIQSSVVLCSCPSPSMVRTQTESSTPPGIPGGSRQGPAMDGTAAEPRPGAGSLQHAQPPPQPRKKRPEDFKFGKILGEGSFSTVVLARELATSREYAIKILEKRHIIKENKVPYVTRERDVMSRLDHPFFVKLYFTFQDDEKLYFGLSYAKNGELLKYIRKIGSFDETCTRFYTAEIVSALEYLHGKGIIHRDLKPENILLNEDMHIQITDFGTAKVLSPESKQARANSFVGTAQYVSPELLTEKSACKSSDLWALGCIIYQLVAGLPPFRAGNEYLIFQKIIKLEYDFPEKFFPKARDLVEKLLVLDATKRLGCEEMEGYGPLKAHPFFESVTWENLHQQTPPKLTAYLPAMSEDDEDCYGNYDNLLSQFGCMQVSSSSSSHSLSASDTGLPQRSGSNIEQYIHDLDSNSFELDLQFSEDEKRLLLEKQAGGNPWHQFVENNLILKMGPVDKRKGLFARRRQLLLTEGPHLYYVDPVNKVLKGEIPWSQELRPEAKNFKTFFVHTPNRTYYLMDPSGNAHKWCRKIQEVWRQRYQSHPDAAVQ
Protocol: (§1) Phosphorylation of AGC kinase substrates by PDK1. The phosphorylation of PDK1 substrates was performed in a final volume of 20 μl in a buffer containing 50 mM Tris-HCl pH 7.5, 0.1% (by vol) 2-mercaptoethanol, 10 mM magnesium chloride, 100 μM [γ-^32P]ATP (˜1000 c.p.m./pmol), 0.5 μM microcystin-LR, 0.6 μM AGC kinase substrate and 0.6 to 30 nM wild type PDK1 or the indicated mutant of PDK1.
(§2) Relative phosphorylation of PDK1 substrates. PDK1 substrates were phosphorylated in vitro, subjected to SDS-PAGE, and radioactivity associated with the bands measured using a Phospho-Imager and known amounts of ATP as standard. The phosphorylation rate of PKB[S473D] in the presence of PtdIns (3,4,5)P3 was 2.6 mol/mol PDK1/min and was taken as the relative value of 100. Average values from a representative experiment performed in duplicates are shown.

PDK1-L155E = biological target: T2, PDK1-L155E (Homo sapiens, UniProt O15530, L155E); assay: as above; format: biochemical; settings: PKB[S473D] rate by PDK1-wt = 100
T2 construct: made in house; host or cells: human embryonic kidney 293 cells
T2 sequence (O15530 1-556 L155E): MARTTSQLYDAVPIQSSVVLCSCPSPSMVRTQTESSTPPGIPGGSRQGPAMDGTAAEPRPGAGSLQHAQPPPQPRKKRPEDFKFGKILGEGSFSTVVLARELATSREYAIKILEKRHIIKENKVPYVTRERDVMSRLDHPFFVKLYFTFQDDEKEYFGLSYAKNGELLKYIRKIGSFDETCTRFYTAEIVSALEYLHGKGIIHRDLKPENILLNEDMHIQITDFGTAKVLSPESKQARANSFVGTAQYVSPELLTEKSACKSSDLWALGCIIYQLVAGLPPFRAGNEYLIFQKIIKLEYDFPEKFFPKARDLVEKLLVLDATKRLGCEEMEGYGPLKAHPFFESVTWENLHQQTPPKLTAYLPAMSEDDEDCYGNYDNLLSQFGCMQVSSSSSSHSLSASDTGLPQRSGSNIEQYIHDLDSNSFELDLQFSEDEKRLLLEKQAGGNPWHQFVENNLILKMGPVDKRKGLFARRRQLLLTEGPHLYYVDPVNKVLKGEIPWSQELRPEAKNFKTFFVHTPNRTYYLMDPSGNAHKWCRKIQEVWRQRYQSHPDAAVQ
Protocol: as §1, §2

PDK1 = biological target: T3, PDK1 (Homo sapiens, UniProt O15530); assay: Glutathione-Sepharose pull-down of PDK1 with S6K1 or SGK1 from 293 cells; format: binding; settings: GST-SGK1 forms; wild type Myc-PDK1
T3 construct: Full length PDK1 (residues 1-556); made in house; host or cells: 293 cells
T3 sequence (O15530 1-556): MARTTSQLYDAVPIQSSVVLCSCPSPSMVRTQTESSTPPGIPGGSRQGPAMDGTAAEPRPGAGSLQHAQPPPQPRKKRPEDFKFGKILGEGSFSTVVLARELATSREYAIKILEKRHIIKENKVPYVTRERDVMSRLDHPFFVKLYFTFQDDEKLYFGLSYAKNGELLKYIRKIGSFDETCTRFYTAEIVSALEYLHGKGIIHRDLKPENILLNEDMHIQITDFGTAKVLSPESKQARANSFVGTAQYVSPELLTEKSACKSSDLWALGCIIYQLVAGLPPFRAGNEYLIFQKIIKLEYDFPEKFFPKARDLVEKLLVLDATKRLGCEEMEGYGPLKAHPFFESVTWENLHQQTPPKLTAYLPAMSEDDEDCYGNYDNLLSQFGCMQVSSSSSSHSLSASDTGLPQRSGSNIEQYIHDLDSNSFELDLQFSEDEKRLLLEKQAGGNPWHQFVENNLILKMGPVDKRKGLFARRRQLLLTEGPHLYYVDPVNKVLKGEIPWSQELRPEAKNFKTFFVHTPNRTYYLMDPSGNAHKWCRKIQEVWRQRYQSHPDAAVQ
Protocol: FIG. 21. Interaction of S6K1 and SGK1 with PDK1. 293 cells were transiently transfected with DNA constructs expressing GST, GST-PDK1 wt or PDK1 L155E together with constructs expressing either wild type or the indicated mutants or truncations of HA tagged S6K1 (A) or wild type GST-ΔN-SGK1 or 422D mutant. 36 h post transfection the cells were lysed and GST fusion protein was purified by affinity chromatography on glutathione-Sepharose beads. Aliquots were electrophoresed on a 10% SDS-polyacrylamide gel, stained with Coomassie Blue, or immunoblotted using an anti-FLAG antibody to detect FLAG-S6K1 and anti-Myc antibody to detect Myc-PDK1. To establish that the wild type and mutant proteins were expressed at similar levels, […] of total lysate was electrophoresed on a 10% SDS-polyacrylamide gel and immunoblotted using the indicated antibodies. Duplicates of each condition are shown. Similar results were obtained in two different experiments.
Binding of PDK1 to SGK1 and S6K1. For the data presented in FIG. 22, 293 cells were cotransfected with 10 μg of the wild type or mutant PDK1 plasmid and 10 μg of either the wild type or mutant S6K1 or SGK1. […] The gels were either stained with Coomassie blue, or analysed by immunoblotting with either anti-Flag or anti-Myc antibodies (described below).

B1: DN-SGK: SGK1 lacking the N-terminal 60 amino acids (protein)
chain: SQPQEPELMNANPSPPPSPSQQINLGPSSNPHAKPSDFHFLKVIGKGSFGKVLLARHKAEEVFYAVKVLQKKAILKKKEEKHIMSERNVLLKNVKHPFLVGLHFSFQTADKLYFVLDYINGGELFYHLQRERCFLEPRARFYAAEIASALGYLHSLNIVYRDLKPENILLDSQGHIVLTDFGLCKENIEHNSTTSTFCGTPEYLAPEVLHKQPYDRTVDWWCLGAVLYEMLYGLPPFYSRNTAEMYDNILNKPLQLKPNITNSARHLLEGLLQKDRTKRLGAKDDFMEIKSHVFFSLINWDDLINKKITPPFNPNVSGPNDLRHFDPEFTEEPVPNSIGKSPDSVLVTASVKEAAEAFLGFSYAPPTDSFL
modifications: left off: a dimerising Fc or GST
notes: SGK1 lacking the N-terminal 60 amino acids
In the case of B1, the “phosphorylated at a lower rate than SGK1[T422D]” value (PDK1-wt) is reported as 10 fold, the “Relative phosphorylation of PDK1 substrates PDK1-wt +PIFtide” value (PDK1-wt; with PIFtide, PKB[S473D] rate with PtdIns(3,4,5)P3 = 100) is reported as 3.8 and the “Relative phosphorylation of PDK1 substrates PDK1-wt —” value (PDK1-wt; without PIFtide, PKB[S473D] rate with PtdIns(3,4,5)P3 = 100) is reported as 8. For the same molecule, the “Relative phosphorylation of PDK1 substrates PDK1-L155E +PIFtide” value (PDK1-L155E; with PIFtide) was 2.4, the “Relative phosphorylation of PDK1 substrates PDK1-L155E —” value (PDK1-L155E; without PIFtide) was 3.3 and the “interaction with Myc-PDK1” value (PDK1) was “did not interact”.
